Reference: paper doi:10.1101/2025.04.28.648957 (bioRxiv, 2025)

Columns and labels:
negative-staining TEM = target: the molecule itself; assay: negative-staining TEM
SEC-MALS = target: the molecule itself; assay: SEC-MALS
SEC = target: the molecule itself; assay: SEC

B1: tag-cleaved SSNA1 1-97 (domain or fragment, human)
chain: GPMTQQGAALQNYNNELVKCIEELCQKREELCRQIQEEEDEKQRLQNEVRQLTEKLARVNENLARKIASRNEFDRTIAETEAAYLKILESSQTLLSVLK
B1: binds (negative-staining TEM).

B2: tag-cleaved SSNA1 S89A (natural protein, human)
chain: GPMTQQGAALQNYNNELVKCIEELCQKREELCRQIQEEEDEKQRLQNEVRQLTEKLARVNENLARKIASRNEFDRTIAETEAAYLKILESAQTLLSVLKREAGNLTKATAPDQKSSGGRDS
B2: binds (negative-staining TEM).

B3: tag-cleaved SSNA1 S89D (natural protein, human)
chain: GPMTQQGAALQNYNNELVKCIEELCQKREELCRQIQEEEDEKQRLQNEVRQLTEKLARVNENLARKIASRNEFDRTIAETEAAYLKILESDQTLLSVLKREAGNLTKATAPDQKSSGGRDS
In the case of B3, the “stoichiometry N” value (SEC-MALS) is reported as 2.

B4: tag-cleaved SSNA1 (full-length human SSNA1, 1-119) (natural protein)
chain: GPMTQQGAALQNYNNELVKCIEELCQKREELCRQIQEEEDEKQRLQNEVRQLTEKLARVNENLARKIASRNEFDRTIAETEAAYLKILESSQTLLSVLKREAGNLTKATAPDQKSSGGRDS
B4: binds (SEC).

B5: tag-cleaved SSNA1 1-90 (domain or fragment, human)
chain: GPMTQQGAALQNYNNELVKCIEELCQKREELCRQIQEEEDEKQRLQNEVRQLTEKLARVNENLARKIASRNEFDRTIAETEAAYLKILESSQ
B5 was tested, and the “stoichiometry N” value (SEC-MALS) was 2.

B6: tag-cleaved SSNA1 1-104 (domain or fragment, human)
chain: GPMTQQGAALQNYNNELVKCIEELCQKREELCRQIQEEEDEKQRLQNEVRQLTEKLARVNENLARKIASRNEFDRTIAETEAAYLKILESSQTLLSVLKREAGNLT
B6: binds (SEC).
